Source: the supplement of paper PMC6757056
± gives the standard deviation of the averaged measurements.

B1: library; a variant is named by its letters at N, in order (parent)
chain: GCUGUCACCGGUGUAUUACCCUAGUGGUCGACCGGUCUGAUGAGUCUNNNNNNAGACGAAACAGC

Legend:
hypoxanthine [1] = variants of: B1; experiment: FACS-Seq fitted mean relative fluorescence mCherry/BFP without ligand (log10 relative fluorescence); ligand: hypoxanthine (xanthine aptamer); higher = higher reporter protein expression; conditions: HEK293T, ligand present: no
Summary of the method: (§1)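 Reporter cells were enriched HEK293T libraries transduced by lentivirus with mCherry behind the ribozyme switch and with an EF1α-BFP marker. Following 48 h with or without ligand, they were sorted into 6 mCherry/BFP bins, and bin genomic DNA was PCR-amplified, barcoded and MiSeq-sequenced. Fluorescence was computed as the fitted normal mean of the bin counts. The fit used log10(mCherry/BFP), with scaling to five spiked-in control ribozymes.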

hypoxanthine [2] = variants of: B1; experiment: normalized RNA/DNA level with ligand (relative to sTRSVctl = 100) (log10 (% of sTRSVctl)); ligand: hypoxanthine (xanthine aptamer); higher = less ribozyme self-cleavage, higher mRNA level; conditions: ligand concentration (+) RNA-Seq: 5 mM, HEK293T, reporter: mCherry (pCS4076), ligand present: yes
Method: (§2)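 Hammerhead (sTRSV) ribozyme switch libraries with a ligand aptamer grafted on stem I and a randomized N4-6 loop II, cloned into the 3' UTR of mCherry and transiently transfected into HEK293T cells; RNA-Seq 72 h post transfection with ligand added 1 h before transfection; RNA read count / plasmid DNA read count normalized to the non-cleaving sTRSVctl (x100), log10; sequences with >100 DNA reads. FACS-Seq: lentiviral library sorted into 6 bins after 48 h ligand, log-normal fit mean of mCherry/BFP scaled to controls. Printed sequences are partial switch sequences.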

hypoxanthine [3] = variants of: B1; experiment: normalized RNA/DNA level without ligand (relative to sTRSVctl = 100) (log10 (% of sTRSVctl)); ligand: hypoxanthine (xanthine aptamer); higher = less ribozyme self-cleavage, higher mRNA level; conditions: HEK293T, reporter: mCherry (pCS4076), ligand present: no
Method: as §2

hypoxanthine [4] = variants of: B1; experiment: FACS-Seq fitted mean relative fluorescence mCherry/BFP with ligand (log10 relative fluorescence); ligand: hypoxanthine (xanthine aptamer); ligand concentration (+) FACS-Seq: 5 mM; higher = higher reporter protein expression; conditions: HEK293T, ligand present: yes
Summary of the method: as §1

Variant | FACS-Seq fitted mean (log10) (hypoxanthine [1]) | normalized RNA/DNA level with ligand (log10) (hypoxanthine [2]) | normalized RNA/DNA level without ligand (log10) (hypoxanthine [3]) | FACS-Seq fitted mean (log10) (hypoxanthine [4])
UAGGCC | 0.378 ± 0.066 | 2.002 ± 0.0047 | 1.954 ± 0.0025 | 0.564 ± 0.03
AAAUAG | 0.258 ± 0.041 | 1.842 ± 0.0027 | 1.44 ± 0.018 | 0.487 ± 0.016
UAGUCC | 0.327 ± 0.0056 | 1.97 ± 0.067 | 1.92 ± 0.023 | 0.646 ± 0.091
AACGAG | 0.131 ± 0.0019 | 1.75 ± 0.031 | 1.22 ± 0.062 | 0.553 ± 0.084
ACAGGU | 0.51 ± 0.04 | 1.858 ± 0.0068 | 1.49 ± 0.082 | 0.744 ± 0.054
AGUUGG | -0.154 ± 0.12 | 1.8 ± 0.037 | 1.338 ± 0.0021 | 0.403 ± 0.075
AUAACA | 0.00278 ± 0.0073 | 1.9 ± 0.041 | 1.83 ± 0.031 | 0.0853 ± 0.19
CGCGGG | 0.374 ± 0.021 | 1.84 ± 0.026 | 1.36 ± 0.036 | 0.72 ± 0.051
AACUUA | 0.394 ± 0.02 | 1.9 ± 0.021 | 1.857 ± 0.013 | 0.581 ± 0.02
CCGAAA | 0.595 ± 0.015 | 1.91 ± 0.049 | 1.7 ± 0.04 | 0.689 ± 0.05
CCAGCC | -0.754 ± 0.048 | 2 ± 0.026 | 1.916 ± 0.013 | -0.409 ± 0.044
UAUAGU | 0.0206 ± 0.046 | 1.86 ± 0.029 | 1.57 ± 0.063 | 0.131 ± 0.037
CAUGAU | 0.296 ± 0.088 | 1.905 ± 0.0035 | 1.73 ± 0.032 | 0.333 ± 0.077
AGACGU | 0.722 ± 0.019 | 1.9 ± 0.043 | 1.59 ± 0.03 | 0.696 ± 0.067
AUGGAC | 0.677 ± 0.01 | 1.8884 ± 0.00037 | 1.68 ± 0.028 | 0.843 ± 0.058
GUCAAG | 0.65 ± 0.074 | 1.85 ± 0.077 | 1.46 ± 0.07 | 0.667 ± 0.011
GCAAUG | 0.028 ± 0.018 | 1.87 ± 0.05 | 1.436 ± 0.0057 | 0.443 ± 0.04
GCCUUC | -0.325 ± 0.056 | 1.968 ± 0.0039 | 1.88 ± 0.058 | 0.101 ± 0.059
AGCACC | -0.563 ± 0.05 | 1.98 ± 0.063 | 1.844 ± 0.0071 | -0.00735 ± 0.0039
CGACAC | -0.0307 ± 0.0086 | 1.938 ± 0.0063 | 1.75 ± 0.039 | 0.154 ± 0.057
CUCACU | 0.473 ± 0.021 | 1.99 ± 0.041 | 1.92 ± 0.05 | 0.419 ± 0.12
GAUCCG | 0.0801 ± 0.012 | 1.94 ± 0.048 | 1.77 ± 0.051 | 0.31 ± 0.0077
UUCGAU | 0.164 ± 0.024 | 1.88 ± 0.019 | 1.767 ± 0.00052 | 0.303 ± 0.0063
ACAGAU | 0.263 ± 0.00091 | 1.89 ± 0.033 | 1.64 ± 0.049 | 0.461 ± 0.069

Variant | FACS-Seq fitted mean (log10) (hypoxanthine [1]) | normalized RNA/DNA level with ligand (log10) (hypoxanthine [2]) | normalized RNA/DNA level without ligand (log10) (hypoxanthine [3]) | FACS-Seq fitted mean (log10) (hypoxanthine [4])
GACGAU | 0.412 ± 0.021 | 1.91 ± 0.027 | 1.75 ± 0.023 | 0.672 ± 0.053
UUAAGG | 0.505 ± 0.031 | 1.925 ± 0.015 | 1.77 ± 0.058 | 0.538 ± 0.077
GAGCAG | -0.00628 ± 0.045 | 1.67 ± 0.027 | 1.19 ± 0.024 | 0.5054 ± 0.0013
GAGUGG | -0.253 ± 0.023 | 1.59 ± 0.12 | 1.13 ± 0.067 | 0.299 ± 0.042
GGGGGC | 0.564 ± 0.051 | 1.85 ± 0.06 | 1.51 ± 0.023 | 0.468 ± 0.037
CACUUU | 0.525 ± 0.016 | 1.89 ± 0.036 | 1.847 ± 0.0042 | 0.491 ± 0.011
GAUGUG | 0.2 ± 0.026 | 1.82 ± 0.019 | 1.31 ± 0.06 | 0.673 ± 0.077
CAUGGU | 0.331 ± 0.045 | 1.82 ± 0.02 | 1.755 ± 0.0046 | 0.455 ± 0.014
GGUGCC | 0.798 ± 0.026 | 2.009 ± 0.0084 | 1.97 ± 0.04 | 0.76 ± 0.035
UAAGGU | 0.356 ± 0.021 | 1.94 ± 0.042 | 1.53 ± 0.027 | 0.602 ± 0.06
AUGUUU | 0.564 ± 0.028 | 1.95 ± 0.055 | 1.85 ± 0.03 | 0.43 ± 0.049
UGGAGG | 0.223 ± 0.0051 | 1.73 ± 0.018 | 1.26 ± 0.072 | 0.592 ± 0.036
UGGAGC | 0.45 ± 0.088 | 1.959 ± 0.019 | 1.707 ± 0.01 | 0.69 ± 0.031
GAGAAG | -0.406 ± 0.0075 | 1.55 ± 0.017 | 1.05 ± 0.024 | 0.342 ± 0.037
GUCCCG | 0.415 ± 0.0031 | 1.91 ± 0.0099 | 1.64 ± 0.12 | 0.511 ± 0.028
AACAUG | 0.137 ± 0.021 | 1.861 ± 0.0051 | 1.44 ± 0.042 | 0.447 ± 0.013
GGAAUG | -0.159 ± 0.068 | 1.842 ± 0.0069 | 1.34 ± 0.03 | -0.507 ± 0.2
ACGAGA | -0.0663 ± 0.023 | 1.67 ± 0.045 | 1.14 ± 0.019 | 0.488 ± 0.018
GGGUGC | 0.296 ± 0.1 | 1.9 ± 0.036 | 1.52 ± 0.017 | 0.348 ± 0.011
GUAAAA | 0.614 ± 0.066 | 1.92 ± 0.06 | 1.815 ± 0.0075 | 0.661 ± 0.033
GUAAAC | 0.572 ± 0.053 | 1.946 ± 0.0036 | 1.74 ± 0.028 | 0.739 ± 0.055
GCAGAA | 0.408 ± 0.02 | 1.88 ± 0.057 | 1.7 ± 0.031 | 0.472 ± 0.013
CGGGUU | -0.0176 ± 0.018 | 1.99 ± 0.027 | 1.89 ± 0.044 | -0.176 ± 0.051
GAGGAG | 0.288 ± 0.028 | 1.65 ± 0.042 | 1.17 ± 0.068 | 0.643 ± 0.013

Variant | FACS-Seq fitted mean (log10) (hypoxanthine [1]) | normalized RNA/DNA level with ligand (log10) (hypoxanthine [2]) | normalized RNA/DNA level without ligand (log10) (hypoxanthine [3]) | FACS-Seq fitted mean (log10) (hypoxanthine [4])
UAGAAG | 0.421 ± 0.0051 | 1.858 ± 0.0066 | 1.47 ± 0.022 | 0.577 ± 0.057
AACUGA | -0.0809 ± 0.032 | 1.94 ± 0.035 | 1.716 ± 0.012 | -0.204 ± 0.016
AAAUGG | 0.175 ± 0.024 | 1.78 ± 0.025 | 1.33 ± 0.019 | 0.502 ± 0.013
UGCAAG | 0.123 ± 0.078 | 1.853 ± 0.0049 | 1.72 ± 0.021 | 0.179 ± 0.031
UCAAGA | 0.386 ± 0.04 | 1.92 ± 0.028 | 1.54 ± 0.051 | 0.599 ± 0.074
UACAAU | 0.702 ± 0.073 | 1.9 ± 0.039 | 1.819 ± 0.0071 | 0.7079 ± 0.0057
UUUAGU | 0.632 ± 0.16 | 1.93 ± 0.043 | 1.83 ± 0.064 | 0.638 ± 0.11
AUCCGC | 0.3452 ± 0.0029 | 1.931 ± 0.011 | 1.8 ± 0.024 | 0.517 ± 0.049
UGAUAU | 0.0888 ± 0.12 | 1.96 ± 0.028 | 1.776 ± 0.016 | 0.0923 ± 0.28
GGAGAC | -0.358 ± 0.15 | 1.86 ± 0.066 | 1.75 ± 0.086 | 0.13 ± 0.024
CUUAUA | 0.669 ± 0.043 | 1.92 ± 0.037 | 1.792 ± 0.014 | 0.696 ± 0.063
CAGUGU | 0.44 ± 0.086 | 1.924 ± 0.002 | 1.87 ± 0.016 | 0.795 ± 0.017
AUUAUU | 0.5583 ± 0.0011 | 1.91 ± 0.0029 | 1.881 ± 0.011 | 0.668 ± 0.014
AGUUCA | 0.179 ± 0.0096 | 1.91 ± 0.034 | 1.802 ± 0.0084 | 0.4165 ± 0.0023
AAUUCA | 0.486 ± 0.061 | 1.93 ± 0.049 | 1.86 ± 0.025 | 0.567 ± 0.082
GGACAC | 0.562 ± 0.091 | 1.9 ± 0.097 | 1.71 ± 0.022 | 0.59 ± 0.014
UCCGAG | 0.3183 ± 0.002 | 1.82 ± 0.054 | 1.38 ± 0.049 | 0.517 ± 0.0072
GAACGA | 0.281 ± 0.023 | 1.91 ± 0.049 | 1.62 ± 0.046 | 0.454 ± 0.011
GAACGC | 0.366 ± 0.038 | 1.85 ± 0.038 | 1.592 ± 0.0033 | 0.684 ± 0.031
AAGGGC | 0.365 ± 0.031 | 1.9146 ± 0.00071 | 1.75 ± 0.023 | 0.576 ± 0.022
CUCGAU | 0.5204 ± 0.0026 | 1.93 ± 0.017 | 1.83 ± 0.081 | 0.642 ± 0.061
GGGCAA | 0.0453 ± 0.045 | 1.963 ± 0.0095 | 1.783 ± 0.013 | 0.266 ± 0.015
ACUGAC | 0.249 ± 0.034 | 1.95 ± 0.11 | 1.835 ± 0.014 | 0.347 ± 0.1
UUAUGA | -0.0342 ± 0.015 | 1.91 ± 0.04 | 1.64 ± 0.039 | -0.0882 ± 0.046
